Experiment [1] concerns the target Wild type CCR5, endogenous on human monocyte-derived macrophages (human (endogenous in monocyte-derived macrophages)) (UniProt P51681).
Experiment [2] has as its target Wild type CCR5, endogenous on human monocyte-derived macrophages (human (endogenous in monocyte-derived macrophages)), P51681. As to the kind of experiment: radioligand binding; competition: human macrophages (membranes) pretreated with different amounts of CCR5-T4L or CCL5, or CCL5 plus CCR5-T4L; specific binding of 0.3 nmol/L [125I]-CCL5, 2 h at 37°C, unbound ligand removed through a 10% sucrose/PBS cushion, gamma counting. Conditions: remark: other sources report otherwise.

The source of these data is PMC4496087.

“Soluble recombinant CCR5-T4L protein (receptor)”: the [35S]GTPγS binding to membranes of human MDM (G-protein activation), EC50 in experiment [1] came out at 5.46 µM.

B1: Chemokine (C-C motif) ligand 5 (CCL5), unlabelled, P13501 24-91 (ligand)
chain: SPYSSDTTPCCFAYIARPLPRAHIKEYFYTSGKCSNPAVVFVTRKNRQVCANPEKKWVREYINSLEMS
Regarding B1, the EC50 (in general, the concentration needed to bring the measured effect to its halfway point) in experiment [2] was determined as 46 pM.
